Measurements: patent publication US20060024786

Test system: full length human N-WASP (Myc-N-WASP-TAP)

## N_GST_tev_Rac1 GTP (bacterial GST tagged Rac1 protein)
  activation of FL N-WASP (barbed ends, actin polymerization assay): Rac1 can activate FL N-WASP
  activation of FL N-WASP against Cdc42: Rac1 was a more potent N-WASP activator than Cdc42 in the absence of PIP2 vesicles
  dose dependence of barbed end concentration: there is a bell shaped dose dependence for Nck1, Nck2 and Rac1
